Assay results published in patent publication US20200392228A1 (PANDION OPERATIONS, published 2020).
Where two headings read alike, the source gives them in different places.

T1: mouse MAdCAM expressed on cells (mouse, UniProt Q61826 22-405)
T1 construct: whole, on cells
T1 sequence (looked up): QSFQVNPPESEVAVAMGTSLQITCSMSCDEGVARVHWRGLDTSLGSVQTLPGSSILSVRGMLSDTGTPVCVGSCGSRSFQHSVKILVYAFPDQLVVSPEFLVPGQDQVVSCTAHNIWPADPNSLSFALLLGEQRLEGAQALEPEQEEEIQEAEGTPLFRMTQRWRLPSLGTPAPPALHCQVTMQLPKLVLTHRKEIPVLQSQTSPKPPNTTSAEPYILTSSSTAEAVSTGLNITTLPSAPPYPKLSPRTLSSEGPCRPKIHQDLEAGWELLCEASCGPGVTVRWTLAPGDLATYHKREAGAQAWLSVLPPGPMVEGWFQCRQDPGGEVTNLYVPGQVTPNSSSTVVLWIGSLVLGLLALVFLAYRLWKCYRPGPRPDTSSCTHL

T2: human MAdCAM expressed on cells (human, UniProt Q13477 19-382)
T2 construct: whole, on cells; also called MADCAM1
T2 sequence (looked up): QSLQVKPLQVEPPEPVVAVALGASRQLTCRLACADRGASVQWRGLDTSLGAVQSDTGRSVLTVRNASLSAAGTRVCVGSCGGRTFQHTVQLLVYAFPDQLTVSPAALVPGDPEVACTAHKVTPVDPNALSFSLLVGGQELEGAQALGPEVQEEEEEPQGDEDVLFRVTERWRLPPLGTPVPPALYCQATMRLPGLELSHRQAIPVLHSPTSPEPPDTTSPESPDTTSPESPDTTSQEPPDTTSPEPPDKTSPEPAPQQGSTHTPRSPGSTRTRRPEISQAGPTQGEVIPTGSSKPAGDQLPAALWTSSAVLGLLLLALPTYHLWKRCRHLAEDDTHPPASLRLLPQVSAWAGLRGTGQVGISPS


Experiments:
Experiment in all cases: cell binding
[1] = target: T1, mouse MAdCAM expressed on cells
[2] = target: T1, mouse MAdCAM expressed on cells; remark: listed apart in the source
[3] = target: T2, human MAdCAM expressed on cells

Row | Binder | binding result [1] | binding result [2] | binding result [3]
1 | MAdCAM antibody Clone ID 43 of Table 6 (scFv) (scFv) scFv: EVQLLESGGGLVQPGGSLRLSCAASGFTFDDFAMHWVRQAPGKGLEWVSGISGNGDSRYYADSVKGRFTISRDNSKNTLYLQMNSLRAEDTAVYYCARDASYGGNYGMDVWGQGTTVTVSSGGGGSGGGGSGGGGSGGGGSDIQMTQSPSSLSASVGDRVTITCQASQDIRNYLNWYQQKPGKAPKLLIYKASTLESGVPSRFSGSGSGTDFTLTISSLQPEDFATYYCQQANSFPLTFGPGTKVDIK | no binding |  | binds
2 | MAdCAM antibody Clone ID 47 of Table 6 (scFv) (scFv) scFv: EVQLLESGGGLVQPGGSLRLSCAASGFSFSDYGMHWVRQAPGKGLEWVSAISGSGGSTYYADSVKGRFTISRDNSKNTLYLQMNSLRAEDTAVYYCARDGGWQPAAILDYWGQGTLVTVSSGGGGSGGGGSGGGGSGGGGSDIQMTQSPSSLSASVGDRVTITCRASQGISNNLNWYQQKPGKAPKLLIYDASNLETGVPSRFSGSGSGTDFTLTISSLQPEDFATYYCQQSYSTPLTFGGGTKVEIK | no binding |  | 
3 | MAdCAM antibody Clone ID 3 of Table 6 (scFv) (scFv) scFv: QVQLVQSGAEVKKPGASVKVSCKASGYPFIGQYLHWVRQAPGQGLEWMGIINPSGGSTSYAQKFQGRVTMTRDTSTSTVYMELSSLRSEDTAVYYCAREGRLSYGMDAWGQGTLVTVSSGGGGSGGGGSGGGGSGGGGSDIQMTQSPSSLSASVGDRVTITCRASQSISSYLAWYQQKPGKAPKLLIYGASTLESGVPSRFSGSGSGTDFTLTISSLQPEDFATYYCQQTWGPPFTFGQGTKLEIK | binds |  | binds
4 | MAdCAM antibody Clone ID 45 of Table 6 (scFv) (scFv) scFv: EVQLLESGGGLVQPGGSLRLSCAASGFSVSSNYMSWVRQAPGKGLEWVAGISYDGSSKPYADSVKGRFTISRDNSKNTLYLQMNSLRAEDTAVYYCARSRGIAARPLQHWGQGTLVTVSSGGGGSGGGGSGGGGSGGGGSDIVMTQSPDSLAVSLGERATINCKSSQSVLYSSNNKNYLAWYQQKPGQPPKLLIYWASTRQSGVPDRFSGSGSGTDFTLTISSLQAEDVAVYYCHQYYGHPPTFGGGTKVEIK | no binding |  | binds
5 | MAdCAM antibody Clone ID 42 of Table 6 (scFv) (scFv) scFv: QVQLVQSGAEVKKPGSSVKVSCKASGGTLSRYGVSWVRQAPGQGLEWMGGIIPIFGTTNYAQKFQGRVTITADESTSTAYMELSSLRSEDTAVYYCARDRVYYDSSGYPTWYFDLWGRGTLVTVSSGGGGSGGGGSGGGGSGGGGSEIVMTQSPATLSVSPGERATLSCRASQSVSSSYLAWYQQKPGQAPRLLIYGASTRATGIPARFSGSGSGTEFTLTISSLQSEDFAVYYCQQYGSSPITFGQGTKVEIK | no binding |  | binds
6 | MAdCAM antibody Clone ID 30 of Table 6 (scFv) (scFv) scFv: QVQLVQSGAEVKKPGASVKVSCKASGYTLTTWYMYWVRQAPGQGLEWMGWINPNRGATNYAQKFQGRVTMTRDTSTSTVYMELSSLRSEDTAVYYCAKGDLWGAMDVWGQGTLVTVSSGGGGSGGGGSGGGGSGGGGSDIQMTQSPSSLSASVGDRVTITCRASDNIGSWLAWYQQKPGKAPKLLIYAASSLQSGVPSRFSGSGSGTDFTLTISSLQPEDFATYYCQQGYSTPPTFGQGTKVEIK | no binding |  | 

Results, then the binder that gave them:

Row | binding result [1] | binding result [2] | binding result [3] | Binder
7 | no binding |  |  | MAdCAM antibody Clone ID 12 of Table 6 (scFv) (scFv) scFv: QVQLVQSGAEVKKPGASVKVSCKASGYTFTGYYMHWVRQAPGQGLEWMGWIGPNSGDTNYAQKFQGRVTMTRDTSTSTVYMELSSLRSEDTAVYYCARDLDHNWYFDLWGRGTLVTVSSGGGGSGGGGSGGGGSGGGGSDIVMTQSPLSLPVTPGEPASISCRSSQSLLHSNGYNYLDWYLQKPGQSPQLLIYSSSNRAPGVPDRFSGSGSGTDFTLKISRVEAEDVGVYYCMQALHIPLTFGGGTKVEIK
8 |  | no binding |  | MAdCAM antibody Clone ID 27 of Table 7 (IgG) (antibody, V domains shown, IgG format) VH: EVQLLESGGGLVQPGGSLRLSCAASGFTFSSYQMSWVRQAPGKGLEWVSYISSSSTYTNYADSVKGRFTISRDNSKNTLYLQMNSLRAEDTAVYYCARANSSSWYDWYFDLWGQGTLVTVSS VL: not shown
9 | no binding |  | binds | MAdCAM antibody Clone ID 44 of Table 6 (scFv) (scFv) scFv: EVQLVESGGGLVKPGGSLRLSCAASGFTFSSYWMSWVRQAPGKGLEWVSAIGTGGGTYYAAPVKGRFTISRDDSKNTLYLQMNSLKTEDTAVYYCAREWLVPYYGMDVWGQGTTVTVSSGGGGSGGGGSGGGGSGGGGSDIQMTQSPSSLSASVGDRVTITCRASQSISRWLAWYQQKPGKAPKLLIYGASNLQSGVPSRFSGSGSGTDFTLTISSLQPEDFATYYCQQSYSTPWTFGQGTKVEIK
10 | no binding |  |  | MAdCAM antibody Clone ID 56 of Table 6 (scFv) (scFv) scFv: EVQLLESGGGLVQPGGSLRLSCAASGFTFDDYAMHWVRQAPGKGLEWVSAISGGGEDTYYADSVKGRFTISRDNSKNTLYLQMNSLRAEDTAVYYCARDASYGGNYGMDVWGQGTTVTVSSGGGGSGGGGSGGGGSGGGGSDIQMTQSPSSLSASVGDRVTITCQASQDIRNYLNWYQQKPGKAPKLLIYKASSLESGVPSRFSGSGSGTDFTLTISSLQPEDFATYYCQQANSYPVTFGGGTKVEIK
11 | no binding |  | binds | MAdCAM antibody Clone ID 46 of Table 6 (scFv) (scFv) scFv: EVQLLESGGGLVQPGGSLRLSCAASGFSVSSNYMSWVRQAPGKGLEWVAGISYDGSSKPYADSVKGRFTISRDNSKNTLYLQMNSLRAEDTAVYYCARSRGIAARPLQHWGQGTLVTVSSGGGGSGGGGSGGGGSGGGGSDIVMTQSPDSLAVSLGERATINCKSSQSVLYSSNNKNYLAWYQQKPGQPPKLLIYQASTRQSGVPDRFSGSGSGTDFTLTISSLQAEDVAVYYCHQYYGHPPTFGGGTKVEIK
12 | no binding |  | binds | MAdCAM antibody Clone ID 48 of Table 6 (scFv) (scFv) scFv: EVQLLESGGGLVQPGGSLRLSCAASGFTFSDHGMHWVRQAPGKGLEWVSVIYGGESTYYADSVKGRFTISRDNSKNTLYLQMNSLRAEDTAVYYCARDPAVAGGGIFDYWGQGTLVTVSSGGGGSGGGGSGGGGSGGGGSDIQMTQSPSSLSASVGDRVTITCRASQGISNYLAWYQQKPGKAPKLLIYDASNLETGVPSRFSGSGSGTDFTLTISSLQPEDFATYYCQQSYSTCYTFGQGTKLEIK
13 | no binding |  | binds | MAdCAM antibody Clone ID 40 of Table 6 (scFv) (scFv) scFv: QVQLVQSGAEVKKPGASVKVSCKASGYTFTSYGISWVRQAPGQGLEWMGIINPRGGSTIFAQKFQGRVTMTRDTSTSTVYMELSSLRSEDTAVYYCARGTRSSGWYGWFDPWGQGTLVTVSSGGGGSGGGGSGGGGSGGGGSDIQMTQSPSSLSASVGDRVTITCRASQGIGNWLAWYQQKPGKAPKLLIYAASNLETGVPSRFSGSGSGTDFTLTISSLQPEDFATYYCQQIHSYPLTFGGGTKVEIK
14 | no binding |  |  | MAdCAM antibody Clone ID 25 of Table 6 (scFv) (scFv) scFv: QVQLVQSGAEVKKPGASVKVSCKASGYTLTTWYMYWVRQAPGQGLEWMGWINPNRGATNYAQKFQGRVTMTRDTSTSTVYMELSSLRSEDTAVYYCAKGDLWGAMDVWGQGTLVTVSSGGGGSGGGGSGGGGSGGGGSDIQMTQSPSSLSASVGDRVTITCRASDNIGSWLAWYQQKPGKAPKLLIYAASSLQSGVPSRFSGSGSGTDFTLTISSLQPEDFATYYCQQGYSTPPTFGQGTKVEIK
